The results in this text go back to a protein production outcome set (Wang et al. 2014).

The data set in a line: label from the status in PepcDB records.

In the case of “MSPRDVLDSIFAFPPNRDTLGGTSYLIVGNEGNILIDCPALDQTNLNFLRSHGGVRWLFLTHRGAIGRTAEIQQNYGCDILIQEQEAYLLPGLTVTTFTQEFAVTPTAKAIWTPGHSPGSSCLYYNHQGGVLFSGRHLLPNQKGEPVPLRTAKTFHWPRQIKSLQTILETLTPETLQYICPGANTGFLRGKRSIDTAYQRLASLDLKALLQTQPLILEHHHHHH”, the protein production result is given as “not failed”.

For “MSPTRAQRLEGLERIAYCSDVKLFFLVSGSRMFLLLLMLFLRVALPHIYGTELLWDSGTLLYDDMNSTWSLLNFPRSWDGVHFFHVAKHGYSHENVCAFFPLVPFIVRTVSWLNDVLLPEFLTAVPVTFQVALLNVAMGGAAAVCLRRITILTLLSGSHGVDYTNKKDKAMSMTSGTWLDSLPLPPPYYRHEVTVKEHLNARLWKEVGATVLMWMLSPTAVFSVVLYTESVFSFATFLGVYMLIVSPQGKWRTAAAEAGAVLCFAVAGCARSNATTYIGFVLYPVFLQVFFFDTYRKRYAKRYGVTSPIRRWPSLARCVIVLIEVVIIITPYLGLNYLCYSRFVPLWDDMSRAAIGGRFWAFYGWMQKRYWNVGFLQSYRWGNAPNVLISAPIMFFTVRGFVLFIVQPALARSMETESNISKEYQEPRSDCREDRCGNKKQRLFSIYKLMENLVQSSNIICLLVILAFGATMAHVNVVNRLVMSSPALYWLWGRQFVCDPWGGNTVVMVRIFLLWNCIGALFVPNGLPWT”, the protein production entry is “failed”.

For the sequence “MSQALPYRPDIDTLRAAAVLSVIVFHIEKDWLPGGFLGVDIFFVISGFLMTTILHREMSGGGGRFSLKAFYIRRIKRILPAFFAVLAATLAGGFFLFTKDDFFLLWKSALTALGFASNLYFARGKDYFDPAQEEKPLLHIWSLSVEEQFYFVFPILLLLVARKSLRVQFGFLAALCALSLAASFIPSALDKYYLPHLRACELLIGSLTAVWMRCRQPAVGRRCAAVGALFAVCILSTCLFSYSEQTAYFPGPAALIPCLAVAALIYFNHYEHPLKKFFQSKITVAAGLISYSLYLWHWPILAFMRYIGPDNLPPYSPAAAVVLILLLSLFSYHCIEKPFKKWQGSFAQSVLWIYALPMLILGAGSFFAMRLPFMAQYDRLGLTRSNTSCHNNTGKQCLWGDTEKQPELLVLGDSHADHYKTFFDAVGKKEKWSATMVSADACAYVEGYASRVFQNWAACRAVYRYAEEHLPRYSKVVLAMRWGSQMPENSRSLAYDAGFFQKFDRMLHKLSSEKQAVYLMADNLASSYNVQRAYILSSRIPGYRQALRPDDESTLKANARIRELAAKYPNVYIIDAAAYIPADFQIGGLPVYSDKDHINPYGGTELAKRFSEKQRFLDTRHNH”, the protein production result was “failed”.

As to “MSQDGGQGRYAGRALAGGRYQLRDLLGEGGMASVHLAYDSVLDRQVAIKTLHTELGREQAFRERFRREAQAVAKLTHTNIVSVFDTGEDDLDGMTTPYIVMEYVEGRPLGSVLDEDVRQQGAMPADKALKITADVLAALEISHEMGLVHRDIKPGNVMMTKRGVVKVMDFGIARAMQSGVTSMTQTGMVVGTPQYLSPEQALGRGVDARSDLYSVGIMLFQLVTGRLPFDADSPLAIAYAHVQEQPVAPSAVNRALPPAVDALVARALKKNPNERFPSAEAMRDECLRVAASFQAAPPSIVPGAQTSSGAGVGSAVFPPVGQGTPAPTGPVQTPYQPTPSPGPNPYGTPAPAAHSPAYGYPQQAGYQTPAPAPYAQQQAAATPPPYNLTPSAQGSGSGSPGGKSNKPVIIGSIVVAVVAVGGLIGALLMNGGGDEDPEAGGGGSSTASVSASPSKAAGYRGPDKEKTIEKDKCTEPQESYNDPDKIQVPDFTFKYIGSVKECFNAAGWQMKVVEVDENTYGEGSVRDQFPTAGTDVDPENMPEIQLKVSTGNPPSE”, the protein production entry is “failed”.

Consider “MSQDVSAQLQFRRSTMHWLRVARTAALALLLAPAVAPARAWLPPPGHVQMPLWPTVVPDALPHPRPESVGTGEGKRPWTKVGDVSRPTITFYAPKGQNTGAAAVVFPGGGYQVLAMDLEGTDICDWLSGRGITCVLLKYRVPNSGPTWTNGGRYYPKVQTALQDAQRALGLVRQHADDWGVDPHRVGVIGFSAGGHLVAAMSTHFTRRTYPSVDAADAQSCRPDFAIAVYPGHLWAHEDEDRAKRDPTHLPLRPDITVTADTPPTFLLQAEDDEVDGVSQSLAYYVALKQAGVPAEMHLYAEGGHAFGLRAGKLPIAQWPHLVETWLGTIGMLGTASAP”, for which the protein production entry is “failed”.

Take “MSQFTPHFTYRNVALALLVSTVLNGCATKGFRDADDQAERDIRTAEQLHGLSLKQPSSPSLVWVDEPWVNPRPIRVSARAQQVKLPPCSLTLIIDGSLSLYEVGQRITRSCGFPVVITPDAMSALSGSASQGGVGATRAIQGALPRPDEGGRPALGSIGGVTSTQSFSPNIGAGLITDISWEGEPLGGALDQITSRLGLNWKFENNQVVLYYLDTRTYRLKVLNAETAMNSNLTGTSSSTAGGDSSSVSGSQNSGQSTSVKLESKIHNDIGQSIKSMVSSSGSWHLSGSTGELVVTDVPQVLDRVESYIDSLNVRMNRMVKLMVSVYSVQRKGSSQTSLDWSVVGKRLDRFGLTLAGTPTATTAVSSAGINVVDGKFAGTTALFRALETQGKVSVVMAHEATTTNLVPAPFQIAGQMVYLRSQKTSVSENYATTDMEPGSITTGTQMTLLPDIRDEGDIQLQFNFSHSDPAQLRKESSKDGNTKMEMPYTTVRSLSERVNLKPGQTLIVSGYNSRNLTASREGAFDPDVTVAGGGKSSETDDVTLIIAVTPVLM”: the protein production result is “failed”.

Take “MSQILTITFPIYAALAVGFLVVRQGWFSSADMRVLGRYVMDIALPALLFNAVASRDVAEVFHPGYMLAFAAAGLATVALSYLWFTLTGTEARRRAVAVMGSSCPNSGFVGYPVMLLTFPDLAGVILALNMLVENVLIIPACLILTDMARGRGQGGIGQRIAGILWGVLKRPMVIGLLLGLAVSLAGVPVPQTVTRLMQMLAASASALALVVIGGSLAGLSWKGSRWHAVQISALKLLLHPALALLAVILVAAIGLPLDPDMGTALILSAAMPMFGIYAVLAQELGHEGMASIALLTATTLAFFTLSGLLWWLT”: the protein production result is “failed”.

Consider “MSQKQEEENPAEETGEEKQDTQEKEGILPERAEEAKLKAKYPSLGQKPGGSDFLMKRLQKGQKYFDSGDYNMAKAKMKNKQLPSAGPDKNLVTGDHIPTPQDLPQRKSSLVTSKLAGGQVE”, for which the protein production entry is given as “failed”.

With “MSQQKHADQDYALETVPSESKKGFLPMFAIMLGFTFFSASMWAGGTIGTGLKFQTFLLAVLMGNLLLGLYTGALAYIGSSTGLSTHLLARYSFGEKGSYLASFILAITQVGWFGVGVAMFSLPVHYATGIDLNILLLLSGILMTTTAYFGIKSLTVLSMISVPAITLLGIYSVTGAVNSIGGISELFAIEPANNLGLAVGLSLCIGSFISGGTLTPDFSRFSKSKSIGVISTFIAFFIGNSLMFIFGAVGASTLGQSDISEVMLKQGLIIPAIIILGLNIWTTNDNALYASGLGFSNITKIPKKHVVIFNGLIGTLGALVLYNNFVGWLTLLSSIIPSIGGIIISDYFINKRQKYASLENIKVKKVHWNAVIAWVLGVFASQFLPGISPINAVFGSAIIYIVLETLKKNNI”, the protein production entry is “failed”.

Take “MSQQNTELEGIGKLRSGSLFMILAVLLAAIGILVIISAGMLGGMFSAASGNVSGVIASGIGLLVGIAIVILIGAIIGLIGILRIRSGFGILKSLGRDVGIGEIGTTLYLVGLIIIIIGALLTIVLIGFPILILGEIIALIGGILIGIGFYKVGEIYNEGLVKIGGILIVIPIDLINFVGFILAYVGLGKVRPLPTVAQQPLVPQVYQVGQGTIRNNGYAYITLYSSTPASIISAKIEGANIMSSAINPTVLQIGNNEVTIFFGNVQSLAPNTTYIITLTINIGGNIINISTTAVYQP”: the protein production result was “failed”.

On to “MSQTEPPEDLMQYEAMAQDALRGVVKAALKKAAAPGGLPEPHHLYITFKTKAAGVSGPQDLLSKYPDEMTIVLQHQYWDLAPGETFFSVTLKFGGQPKRLSVPYAALTRFYDPSVQFALQFSAPEIIEDEPEPDPEPEDKANQGASGDEGPKIVSLDQFRKKLEHHHHHH”, for which the protein production result is given as “not failed”.

As to “MSQTKIEWADKVWNPVSGCTKISEGCQNCYAERMSKRLAGRCGYPAEEPFKVTPHPEKLGEPLKWRKPLRIFVNSMSDLFHADVPDKFIINVLSMIAEASHHTFLILTKRPERMRELLNHDTIANDVWLQTSRGVNAERSPWPLPNLWLGVSAENQAAADERIPILLQTPAAVRFVSVEPMLSEVNLSRYLKRPICKHWGRNGDPNIYGRYFWGKQALVGAGWVGIDWVICGGETGPGARPMHPVWVRDLRDQCRVAGTPFFFKSFGEYVRVGECMNEEDDEEFYSKSSAAGTNVQRLNLQGGMGYHGPKSIYMQRIGKKRAGRELDGRTWEEFPLEHHHHHH”, the protein production entry is “failed”.

In the case of “MSQTRDLQGGKAFGLLKAQQEERLDEINKQFLDDPKYSSDEDLPSKLEGFKEKYMEFDLNGNGDIDIMSLKRMLEKLGVPKTHLELKKLIGEVSSGSGETFSYPDFLRMMLGKRSAILKMILMYEEKAREKEKPTGPPAKKAISELP”, the protein production result was “failed”.

Regarding “MSQVSIIIPTLNEAASLGRTLRQLTLLNPPAKEVIVVDGGSEDETIAIAKQNFESFRQATGVQVIFCERRGRSVQMNYGALSATGDILCFLHADTWVPDDLVAVIEKTLAETKVSCGGFISLMTGSQTTRWGISLHNYLKTYYAPLLFKPHLFFQGLRLLFGDQVMFCRRNDFWDCGGFNEELPIMEDGDLCLKLVQKGRIALVNRIVQSSDRRVARWGSWKATAIYLYIGVLWGIGVDANYLKQFYQDIRLEHHHHHH”, the protein production entry was “not failed”.

Regarding “MSQVSTEFIPTRIAILTVSNRRGEEDDTSGHYLRDSAQEAGHHVVDKAIVKENRYAIRAQVSAWIASDDVQVVLITGGTGLTEGDQAPEALLPLFDREVEGFGEVFRMLSFEEIGTSTLQSRAVAGVANKTLIFAMPGSTKACRTAWENIIAPQLDARTRPCNFHPHLKK”, the protein production entry was “not failed”.

Regarding “MSRAANKLTNTAIKNATTEGKAQRKLADGGGLTLVVKPESKVWWLRYRYDGKERTLTLGAYPQTSLKEARAKRDEAKQLLAEGIDPVTHRATHKTKRVEATANTFKAVATEWLKEVHQKAVVEEHYNRNVRRLEQHAFPKLGRRPISEIEPSDILEPLRDIAKTGRRETAKRVKTLIGQVFRYTVSTGRAQRDMTADIRGILPASETKHHAAVVKPDEIADLLKRIDTYWGTPTVCMALELSPLLFLRPGELRTMKWEQIDWDDATWTTERTKNGEPLVVPLARQSIELLSQIQEVNGKWEWVFPGGHSKTKPMSNNAIRTALTRLELHGIMSAHGFRAMARTVLTERLGFRA”, the protein production result is reported as “failed”.

As for “MSRADDVANLFQRFGASSDGYLETDNSLDYQESSVSSTPSVALQRATSQPSIEQPCAEQSAQNNAPAPDSITPDKTRRIAADTLAKLLAEAVQAREAEAQARNNEALAQSMGKEQLSRTPAHVIAVVSAKGGVGKSTLSAALTSLVKVPGGQTLAIDLDPQDALQHHLNASPDVAGLGGASLSGENWRALLLNGSADADTQLLAYGSLQLDERRSLERFQESDAHWLVRQIARMQLSARDVVILDVPCGDLLMLEQALNAASQVLVVLTADAACYLTLDQMQGWLEPVLAGPQPPVCHYVINQFDASRTFSRDMRDVMAKRLGGRLLGIVHKDNALAEALAYGHNAVQVPSASPGTQDLRVLSHLLITKLLTQDVEETRLS”, the protein production result was “failed”.

On to “MSRARSLFPEMSDFFAGLPSWASIRPVFGDHIIRIEDEMKDGGYELRAEVPGIDPAKDIDITVRDGVLTIKAERTEKKETNGRSEFAYGSFMRSVTLPPGADEDAIKAGYDKGILTISVPVTEPEAAAEKRVAVETVSPLEHHHHHH”, for which the protein production result is listed as “failed”.

Take “MSRDRLYTWAGLWRSPSSSWEALRLEDDQAESQLRAPDERSGLPYQLDYRLRWDADWHLREAVFHVESETGVRKLHLLADGRGHWQDGDGEALPAFDGCLDIDIWPSPFTNTFPIRRLGLADGQRAEIRALYIEAPALEPRSMRQAYTRLDASHYLYENLEGSAFKAVLLVDEQGLVIDYPGLFQRL”: the protein production result is given as “not failed”.
